This note sets out measurements from US20240124586A1 (WUXI BIOLOGICS IRELAND, published 2024).

In general, EC50 (read off the curve) refers to the concentration that produces a half-maximal response. A low value points to a more potent agent. As usually defined, the EC50 is the concentration giving half of the maximal effect.

Where a chain is given by its changes, count along the chain named.

To fix the notation:
T1: human CD19 on CD19+ B cell lines (Ramos, Raji) (human, UniProt P15391 20-556)
T1 sequence (looked up): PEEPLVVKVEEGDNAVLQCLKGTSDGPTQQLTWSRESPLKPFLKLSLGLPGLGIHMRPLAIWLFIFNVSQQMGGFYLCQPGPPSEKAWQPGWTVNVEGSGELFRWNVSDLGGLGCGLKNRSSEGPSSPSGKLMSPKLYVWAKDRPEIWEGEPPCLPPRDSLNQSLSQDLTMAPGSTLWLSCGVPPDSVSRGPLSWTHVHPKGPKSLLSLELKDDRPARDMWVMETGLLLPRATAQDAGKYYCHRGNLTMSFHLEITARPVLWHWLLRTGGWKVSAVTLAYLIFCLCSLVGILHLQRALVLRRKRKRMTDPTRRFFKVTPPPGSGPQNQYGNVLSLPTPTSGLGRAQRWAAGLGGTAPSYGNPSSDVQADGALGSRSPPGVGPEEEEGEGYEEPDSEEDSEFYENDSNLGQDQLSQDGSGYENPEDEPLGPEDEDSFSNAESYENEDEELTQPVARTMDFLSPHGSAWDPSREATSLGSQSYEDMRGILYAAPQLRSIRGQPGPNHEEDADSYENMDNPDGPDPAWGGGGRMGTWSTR

B1: T3-Design_6a (IgG1), normal orientation (antibody)
heavy: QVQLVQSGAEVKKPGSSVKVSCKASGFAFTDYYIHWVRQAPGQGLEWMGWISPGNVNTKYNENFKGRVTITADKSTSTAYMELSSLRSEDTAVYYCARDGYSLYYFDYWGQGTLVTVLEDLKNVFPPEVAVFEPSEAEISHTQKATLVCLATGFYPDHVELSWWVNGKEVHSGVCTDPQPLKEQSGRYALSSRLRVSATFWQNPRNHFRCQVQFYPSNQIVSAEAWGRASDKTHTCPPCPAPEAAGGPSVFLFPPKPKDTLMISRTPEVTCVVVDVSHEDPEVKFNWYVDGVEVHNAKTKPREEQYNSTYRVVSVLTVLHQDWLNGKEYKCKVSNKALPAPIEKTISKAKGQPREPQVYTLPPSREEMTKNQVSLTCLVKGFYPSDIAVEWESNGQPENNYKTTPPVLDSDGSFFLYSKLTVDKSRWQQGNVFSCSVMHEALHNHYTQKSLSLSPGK
light: DIVMTQSPDSLAVSLGERATINCKSSQSLLNSRTRKNYLAWYQQKPGQPPKLLIYWASTRQSGVPDRFSGSGSGTDFTLTISSLQAEDVAVYYCTQSHTLRTFGGGTKVEIKPDIQNPDPAVYQLRDSKSSDKSVCLFTDFDSQTNVSQSKDSDVYITDKCVLDMRSMDFKSNSAVAWSNKSDFACANAFNNSIIPEDTFFPSPESS
notes: Monospecific IgG-like TCR chimera; tested as supernatant
B2: T3-Design_5 (IgG1), normal orientation (antibody)
heavy: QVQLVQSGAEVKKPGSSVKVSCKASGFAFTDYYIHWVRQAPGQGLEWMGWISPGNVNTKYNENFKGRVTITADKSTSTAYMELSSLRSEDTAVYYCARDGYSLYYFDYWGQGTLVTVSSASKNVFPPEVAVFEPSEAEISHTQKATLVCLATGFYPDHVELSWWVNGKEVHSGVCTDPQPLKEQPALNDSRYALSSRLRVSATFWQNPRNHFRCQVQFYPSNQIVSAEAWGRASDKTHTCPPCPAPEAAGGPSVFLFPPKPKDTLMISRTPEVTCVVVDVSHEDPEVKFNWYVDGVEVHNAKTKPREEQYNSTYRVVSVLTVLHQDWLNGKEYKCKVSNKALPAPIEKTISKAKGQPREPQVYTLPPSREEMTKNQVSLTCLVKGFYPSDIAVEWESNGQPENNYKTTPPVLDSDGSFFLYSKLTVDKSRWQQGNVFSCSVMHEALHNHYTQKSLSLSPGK
light: B1 light with P113R, D114T, I115V, Q116A, N117A
notes: as for B1
B3: T3-Design_1 (IgG1), normal orientation (antibody)
heavy: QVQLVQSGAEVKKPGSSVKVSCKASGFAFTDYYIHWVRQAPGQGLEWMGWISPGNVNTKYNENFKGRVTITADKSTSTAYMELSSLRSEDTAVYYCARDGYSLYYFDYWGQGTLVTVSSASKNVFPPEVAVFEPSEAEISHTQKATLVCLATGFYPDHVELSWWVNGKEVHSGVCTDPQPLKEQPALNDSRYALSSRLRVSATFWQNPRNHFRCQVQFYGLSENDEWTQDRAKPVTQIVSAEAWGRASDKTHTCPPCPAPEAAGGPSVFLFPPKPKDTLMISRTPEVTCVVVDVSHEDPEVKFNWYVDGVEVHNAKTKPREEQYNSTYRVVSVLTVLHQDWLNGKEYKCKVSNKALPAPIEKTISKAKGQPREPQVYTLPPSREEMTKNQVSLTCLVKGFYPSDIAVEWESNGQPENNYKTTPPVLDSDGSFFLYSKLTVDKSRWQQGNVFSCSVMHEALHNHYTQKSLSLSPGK
light: B1 light with P113R, D114T, I115V, Q116A, N117A
notes: Monospecific IgG-like chimera of T3 variable domains with TCR CBeta/CAlpha; tested as Expi293 supernatant
B4: T3-Design_2 (IgG1), normal orientation (antibody)
heavy: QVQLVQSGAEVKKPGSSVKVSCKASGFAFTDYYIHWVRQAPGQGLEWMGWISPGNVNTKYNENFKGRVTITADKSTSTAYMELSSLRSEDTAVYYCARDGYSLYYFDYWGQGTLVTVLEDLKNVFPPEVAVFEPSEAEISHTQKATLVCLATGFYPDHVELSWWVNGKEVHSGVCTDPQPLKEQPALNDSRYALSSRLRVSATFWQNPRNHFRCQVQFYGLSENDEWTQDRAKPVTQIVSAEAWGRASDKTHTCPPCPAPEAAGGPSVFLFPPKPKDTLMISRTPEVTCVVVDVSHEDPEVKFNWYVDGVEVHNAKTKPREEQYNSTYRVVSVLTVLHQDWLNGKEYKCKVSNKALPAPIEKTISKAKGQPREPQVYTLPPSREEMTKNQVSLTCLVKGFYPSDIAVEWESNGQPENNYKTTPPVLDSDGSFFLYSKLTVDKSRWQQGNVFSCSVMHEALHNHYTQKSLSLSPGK
light: B1 light
notes: as for B1
B5: T3-Design_6 (IgG1), normal orientation (antibody)
heavy: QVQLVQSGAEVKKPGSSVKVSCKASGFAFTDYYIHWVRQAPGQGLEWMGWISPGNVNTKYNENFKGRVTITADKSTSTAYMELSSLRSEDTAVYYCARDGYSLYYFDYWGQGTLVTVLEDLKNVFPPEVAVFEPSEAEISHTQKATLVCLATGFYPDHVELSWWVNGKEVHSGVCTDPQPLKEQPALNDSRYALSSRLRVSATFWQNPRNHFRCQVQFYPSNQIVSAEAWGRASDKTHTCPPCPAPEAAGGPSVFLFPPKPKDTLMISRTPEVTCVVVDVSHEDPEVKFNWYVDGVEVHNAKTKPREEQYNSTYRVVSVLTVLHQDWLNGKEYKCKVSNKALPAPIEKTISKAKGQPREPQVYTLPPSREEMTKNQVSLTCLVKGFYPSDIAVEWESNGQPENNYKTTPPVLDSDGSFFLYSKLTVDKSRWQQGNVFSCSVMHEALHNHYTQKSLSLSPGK
light: B1 light
notes: as for B1
B6: T3-Design_3 (IgG1), crossed orientation (antibody)
heavy: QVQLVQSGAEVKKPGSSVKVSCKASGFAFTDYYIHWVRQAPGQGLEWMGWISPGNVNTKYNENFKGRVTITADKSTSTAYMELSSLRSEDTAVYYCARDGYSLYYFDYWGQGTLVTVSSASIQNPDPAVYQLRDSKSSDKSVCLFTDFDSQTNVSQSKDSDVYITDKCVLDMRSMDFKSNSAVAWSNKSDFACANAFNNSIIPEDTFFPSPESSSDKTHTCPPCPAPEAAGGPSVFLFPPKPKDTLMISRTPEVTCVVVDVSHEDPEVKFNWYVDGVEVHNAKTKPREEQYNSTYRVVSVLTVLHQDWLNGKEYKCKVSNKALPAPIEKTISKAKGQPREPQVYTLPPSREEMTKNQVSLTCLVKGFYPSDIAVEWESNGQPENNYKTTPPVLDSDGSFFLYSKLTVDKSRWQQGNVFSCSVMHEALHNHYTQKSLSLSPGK
light: DIVMTQSPDSLAVSLGERATINCKSSQSLLNSRTRKNYLAWYQQKPGQPPKLLIYWASTRQSGVPDRFSGSGSGTDFTLTISSLQAEDVAVYYCTQSHTLRTFGGGTKVEIKLEDLKNVFPPEVAVFEPSEAEISHTQKATLVCLATGFYPDHVELSWWVNGKEVHSGVCTDPQPLKEQPALNDSRYALSSRLRVSATFWQNPRNHFRCQVQFYGLSENDEWTQDRAKPVTQIVSAEAWGRA
notes: as for B1
B7: T3-Design_4 (IgG1), crossed orientation (antibody)
heavy: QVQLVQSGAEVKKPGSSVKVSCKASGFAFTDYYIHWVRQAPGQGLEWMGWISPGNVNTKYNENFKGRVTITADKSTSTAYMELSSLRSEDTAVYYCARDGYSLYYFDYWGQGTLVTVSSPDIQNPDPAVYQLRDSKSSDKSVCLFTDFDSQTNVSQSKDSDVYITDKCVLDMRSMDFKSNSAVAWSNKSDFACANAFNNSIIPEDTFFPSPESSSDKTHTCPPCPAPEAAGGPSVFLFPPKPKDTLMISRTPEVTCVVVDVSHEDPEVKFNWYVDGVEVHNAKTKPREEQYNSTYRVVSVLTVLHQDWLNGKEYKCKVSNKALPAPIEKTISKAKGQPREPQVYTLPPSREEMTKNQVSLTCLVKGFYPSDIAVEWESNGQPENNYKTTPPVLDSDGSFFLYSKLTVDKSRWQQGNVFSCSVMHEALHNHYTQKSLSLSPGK
light: B6 light
notes: as for B1
B8: T3-Design_7 (IgG1), crossed orientation (antibody)
heavy: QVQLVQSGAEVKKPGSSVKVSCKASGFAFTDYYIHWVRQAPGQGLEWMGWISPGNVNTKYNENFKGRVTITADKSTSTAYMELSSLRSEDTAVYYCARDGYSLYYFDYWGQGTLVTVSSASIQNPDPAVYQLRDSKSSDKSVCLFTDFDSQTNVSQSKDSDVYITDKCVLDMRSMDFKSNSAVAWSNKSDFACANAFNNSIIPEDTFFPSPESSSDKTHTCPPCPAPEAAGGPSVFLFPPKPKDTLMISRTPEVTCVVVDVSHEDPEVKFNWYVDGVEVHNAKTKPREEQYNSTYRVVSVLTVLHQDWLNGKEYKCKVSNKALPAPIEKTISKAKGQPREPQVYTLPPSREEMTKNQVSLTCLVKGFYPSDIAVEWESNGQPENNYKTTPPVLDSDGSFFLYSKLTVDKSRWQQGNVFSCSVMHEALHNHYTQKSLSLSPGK
light: DIVMTQSPDSLAVSLGERATINCKSSQSLLNSRTRKNYLAWYQQKPGQPPKLLIYWASTRQSGVPDRFSGSGSGTDFTLTISSLQAEDVAVYYCTQSHTLRTFGGGTKVEIKLEDLKNVFPPEVAVFEPSEAEISHTQKATLVCLATGFYPDHVELSWWVNGKEVHSGVCTDPQPLKEQPALNDSRYALSSRLRVSATFWQNPRNHFRCQVQFYPSNQIVSAEAWGRA
notes: as for B1
B9: T3-Design_8 (IgG1), crossed orientation (antibody)
heavy: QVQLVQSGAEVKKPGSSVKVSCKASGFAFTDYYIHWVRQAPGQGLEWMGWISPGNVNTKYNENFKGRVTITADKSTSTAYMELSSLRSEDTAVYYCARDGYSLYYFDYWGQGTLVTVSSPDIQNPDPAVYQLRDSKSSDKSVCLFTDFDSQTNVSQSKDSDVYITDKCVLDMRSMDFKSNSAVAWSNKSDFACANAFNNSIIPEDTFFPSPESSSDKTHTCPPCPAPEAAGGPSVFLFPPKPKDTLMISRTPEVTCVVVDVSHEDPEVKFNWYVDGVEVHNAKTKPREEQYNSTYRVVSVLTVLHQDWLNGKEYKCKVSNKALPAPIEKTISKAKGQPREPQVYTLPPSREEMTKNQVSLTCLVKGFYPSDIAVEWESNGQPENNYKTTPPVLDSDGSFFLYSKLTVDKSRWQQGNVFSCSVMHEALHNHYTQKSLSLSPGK
light: B8 light
notes: as for B1
B10: E17-Design_2-QQQQ (IgG1), bispecific anti-CD3 x CD19 (bispecific antibody)
heavy 1: not shown
light 1: B1 light with N146Q, N180Q, N191Q
heavy 2: QMQLVQSGPEVKKPGTSVKVSCKASGYAFTSYNMYWVRQARGQRLEWIGYIDPYNGDTTYNQKFKGRVTITRDMSTSTAYMELSSLRSEDTAVYYCLTTAYAMDYWGQGTLVTVSSASTKGPSVFPLAPSSKSTSGGTAALGCLVKDYFPEPVTVSWNSGALTSGVHTFPAVLQSSGLYSLSSVVTVPSSSLGTQTYICNVNHKPSNTKVDKRVEPKSCDKTHTCPPCPAPEAAGGPSVFLFPPKPKDTLMISRTPEVTCVVVDVSHEDPEVKFNWYVDGVEVHNAKTKPREEQYNSTYRVVSVLTVLHQDWLNGKEYKCKVSNKALPAPIEKTISKAKGQPREPQVCTLPPSREEMTKNQVSLSCAVKGFYPSDIAVEWESNGQPENNYKTTPPVLDSDGSFFLVSKLTVDKSRWQQGNVFSCSVMHEALHNHYTQKSLSLSPGK
light 2: DIQLTQSPSFLSASVGDRVTITCSASSTVNYMHWYQQKPGKAPKLLIYSTSNLASGVPSRFSGSGSGTEFTLTISSLQPEDFATYYCHQWSSYPYTFGQGTKLEIKRTVAAPSVFIFPPSDEQLKSGTASVVCLLNNFYPREAKVQWKVDNALQSGNSQESVTEQDSKDSTYSLSSTLTLSKADYEKHKVYACEVTHQGLSSPVTKSFNRGEC
B11: T3-Design_2-QQQQ (IgG1) (antibody)
heavy: not shown
light: B1 light with N146Q, N180Q, N191Q
notes: De-glycosylation mutant of Design_2; tested as supernatant
B12: T3-Design_2-AAAA (IgG1) (antibody)
heavy: not shown
light: B1 light with N146A, N180A, N191A
notes: as for B11
B13: T3-Design_2-ASKE (IgG1) (antibody)
heavy: not shown
light: B1 light with N146A, N180S, N191K
notes: as for B11
B14: T3-Design_2-QQQQQ (IgG1) (antibody)
heavy: not shown
light: B1 light with N146Q, N173Q, N180Q, N191Q
notes: as for B11
B15: T3-Design_2-QSKE (IgG1) (antibody)
heavy: not shown
light: B1 light with N146Q, N180S, N191K
notes: as for B11
B16: T1U6.G19.IgG4, bispecific anti-CTLA-4 x PD-1 (bispecific antibody)
heavy: not shown
light 1: not shown
light 2: SYELTQPLSVSVALGQTARITCGGDNIGNKDVHWYQQKPGQAPVLVIYRDSNRPSGIPEGFSGSNSGNTATLTISRAQAGDEADYYCQVWDSIWVFGGGTKLTVLPDIQNPDPAVYQLRDSKSSDKSVCLFTDFDSQTQVSQSKDSDVYITDKCVLDMRSMDFKSNSAVAWSQKSDFACANAFQNSIIPEDTFFPSPESS
notes: Symmetric tetravalent format G19; T1 (ipilimumab) on top, U6 (W3055_1.153.7) as TCR-chimeric Fab at the C-terminus
B17: U6T1.G19.IgG4, bispecific anti-PD-1 x CTLA-4 (bispecific antibody)
heavy: not shown
light 1: SYELTQPLSVSVALGQTARITCGGDNIGNKDVHWYQQKPGQAPVLVIYRDSNRPSGIPEGFSGSNSGNTATLTISRAQAGDEADYYCQVWDSIWVFGGGTKLTVLGQPKAAPSVTLFPPSSEELQANKATLVCLISDFYPGAVTVAWKADSSPVKAGVETTTPSKQSNNKYAASSYLSLTPEQWKSHKSYSCQVTHEGSTVEKTVAPTECS
light 2: not shown
notes: Symmetric tetravalent format G19; also called U6T1 in G19 format
B18: WBP316-BMK1.IgG4 (antibody, V domains shown)
VH: QVQLVESGGGVVQPGRSLRLSCAASGFTFSSYTMHWVRQAPGKGLEWVTFISYDGNNKYYADSVKGRFTISRDNSKNTLYLQMNSLRAEDTAIYYCARTGWLGPFDYWGQGTLVTVSS
VL: not shown
notes: also called WBP316-BMK1 (Ipilimumab)

T2 sequence (P07766 23-207, chain 1 of 3): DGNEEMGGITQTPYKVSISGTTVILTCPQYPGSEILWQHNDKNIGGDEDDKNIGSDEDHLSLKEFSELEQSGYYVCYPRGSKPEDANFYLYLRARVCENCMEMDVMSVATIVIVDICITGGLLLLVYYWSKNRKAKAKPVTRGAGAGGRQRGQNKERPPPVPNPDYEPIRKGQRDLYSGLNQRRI
T2 sequence (P09693 23-182, chain 2 of 3): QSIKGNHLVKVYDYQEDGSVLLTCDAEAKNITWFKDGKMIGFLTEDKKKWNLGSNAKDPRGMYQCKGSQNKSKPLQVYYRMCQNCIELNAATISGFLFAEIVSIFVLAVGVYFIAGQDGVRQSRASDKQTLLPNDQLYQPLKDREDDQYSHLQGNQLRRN
T2 sequence (P04234 22-171, chain 3 of 3): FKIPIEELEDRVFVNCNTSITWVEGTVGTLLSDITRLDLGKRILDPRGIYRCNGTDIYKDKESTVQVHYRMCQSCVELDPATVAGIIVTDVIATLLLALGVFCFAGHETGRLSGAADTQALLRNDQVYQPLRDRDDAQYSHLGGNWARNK

One assay addresses T2, human CD3 on CD3+ Jurkat cells (human, UniProt P07766 23-207; P09693 23-182; P04234 22-171).
T2 construct: whole, on cells; also called CD3 positive Jurkat cells
Briefly: FACS on CD3+ Jurkat cells, supernatant, 5.0 nM. Here is the method: (§1) To confirm whether the expressed proteins had correct folding and retained the original function, we tested their binding on CD3 positive Jurkat cells. FACS bindings of all the samples were carried out at three different concentrations: […].
As to B1, the “MFI at 5.0 nM” value was found to be 5790 MFI.
With B2, the “MFI at 5.0 nM” value worked out at 5390 MFI.
For the molecule B3, the “MFI at 5.0 nM” value stood at 5440 MFI.
B4: the “MFI at 5.0 nM” value worked out at 5830 MFI.
For the molecule B5, the “MFI at 5.0 nM” value was 5790 MFI.
In the case of B6, the “MFI at 5.0 nM” value worked out at 5090 MFI.
Still for that read-out and setting: the same measure for B7: 5440 MFI; for B8: 6320 MFI; for B9: 6410 MFI.

A further assay addresses T1, human CD19 on CD19+ B cell lines …. The assay can be described thus: cell-based or functional assay.
In the case of B10, the “EC50 of T-cell directed killing of malignant B cells (PI-positive Raji cells)” value was 0.624 nM.

For a further assay, the target named is T2, human CD3 on CD3+ Jurkat cells. Briefly: FACS on CD3+ Jurkat cells, Expi293 supernatant.
On to B11, for which the “EC50 (read off the curve)” value was approximately 0.6 nM.
In the case of B12, the concentration giving a half-maximal response (EC50 (read off the curve)) was approximately 0.5 nM.
Turning to B13, the “EC50 (read off the curve)” value is approximately 0.5 nM.
In the case of B14, the “EC50 (read off the curve)” value is approximately 0.4 nM.
Take B15: the “EC50 (read off the curve)” value was approximately 0.5 nM.

Another assay has the same target. The assay can be described thus: FACS on CD3+ Jurkat cells, supernatant, 0.4 nM. As to the method:
as §1
B1: the “MFI at 0.4 nM” value was 2820 MFI.
B2: the “MFI at 0.4 nM” value is 1860 MFI.
Take B3: the “MFI at 0.4 nM” value is 2190 MFI.
Take B4: the “MFI at 0.4 nM” value is 2620 MFI.
The same measure, in the same setting: the same measure for B5: 3910 MFI.
As to B6, the “MFI at 0.4 nM” value worked out at 982 MFI.
As for B7, the “MFI at 0.4 nM” value came out at 1210 MFI.
Turning to B8, the “MFI at 0.4 nM” value turned out to be 1930 MFI.
Turning to B9, the “MFI at 0.4 nM” value stood at 1830 MFI.

The target in the next assay is T3, human PD-1 on engineered CHO-S cells (W305-CHO-S.hPro1.C6) (human, UniProt Q15116 25-288).
T3 construct: whole, on cells; also called human PD-1 engineered cells; PD-1+ cells
T3 sequence (Q15116 25-288, change not shown): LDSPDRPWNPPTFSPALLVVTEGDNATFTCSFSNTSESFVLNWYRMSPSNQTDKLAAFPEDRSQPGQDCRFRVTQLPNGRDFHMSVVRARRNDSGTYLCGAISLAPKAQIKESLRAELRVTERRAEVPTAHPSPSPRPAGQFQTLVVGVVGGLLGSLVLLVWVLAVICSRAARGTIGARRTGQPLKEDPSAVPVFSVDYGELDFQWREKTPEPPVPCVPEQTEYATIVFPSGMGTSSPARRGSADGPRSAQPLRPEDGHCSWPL
Briefly: FACS on human PD-1 engineered cells. Here is the method:
Engineered human PD-1 expressing cells W305-CHO-S.hPro1.C6 were seeded at 1×10⁵ cells/well in U-bottom 96-well plates (COSTAR 3799). Antibodies with 3.16-fold titration in 1% BSA DPBS from 200 nM to 0.002 nM were added to the cells. The plates were incubated at 4° C. for 1 hour. After wash, […] 1:125 diluted PE-labeled goat anti-human antibody (Jackson 109-115-098) was added to each well and the plates were incubated at 4° C. for 1 hour. The binding of the antibodies onto the cells was tested by flow cytometry and the mean fluorescence intensity (MFI) was analyzed by FlowJo.
Take B16: the EC50 is 7.93 nM.
Molecule B17 showed an EC50 of 2.19 nM.

Another assay has as its target T4, cynomolgus CTLA-4 on engineered 293F cells (W316-293F.cynoPro1.F1.Pool) (cynomolgus).
T4 construct: whole, on cells; also called cynomolgus CTLA-4 engineered cells
The assay can be described thus: FACS binding to cynomolgus CTLA-4 engineered cells. Here is the method: 4-fold titrated Abs with 1% BSA DPBS from 40 μg/ml to 0.00004 μg/ml were added to the cells. Plates were incubated at 4° C. for 1 hour. After wash, […] 1:150 diluted PE-labeled goat anti-human antibody (Jackson 109-115-098) was added to each well and the plates were incubated at 4° C. for 1 hour. The binding of the antibodies onto the cells was tested by flow cytometry and the mean fluorescence intensity (MFI) was analyzed by FlowJo.
(In general: A flow cytometer gives signals particle by particle.)
As for B18, it took 0.674 nM to reach a half-maximal effect (EC50) and the “Top(MFI)” value is 8050 MFI.

Another assay addresses T2, human CD3 on CD3+ Jurkat cells. The assay can be described thus: FACS on CD3+ Jurkat cells, supernatant, 0.032 nM. As to the method: as §1
As to B1, the “MFI at 0.032 nM” value was 405 MFI.
In the case of B2, the “MFI at 0.032 nM” value is 249 MFI.
B3: the “MFI at 0.032 nM” value came out at 292 MFI.
As to B4, the “MFI at 0.032 nM” value is 380 MFI.
B5: the “MFI at 0.032 nM” value was 613 MFI.
Same read-out and setting: the result for B6 reads 137 MFI; that for B7, 168 MFI.
For B8, the “MFI at 0.032 nM” value was determined as 259 MFI.
With B9, the “MFI at 0.032 nM” value is 243 MFI.
